Tests used:
c-Src SH2 = experiment: SH2 binding enrichment of the phosphorylated peptide, bacterial display (enrichment ratio); higher = better substrate or ligand; peptides without Tyr show the background
Grb2 SH2 = Grb2 SH2 (UniProt P62993); experiment: as above
SHP2-C SH2 = experiment: as above
EPHB2 = EPHB2 (UniProt P29323); experiment: phosphorylation enrichment, bacterial display (enrichment ratio); higher = better substrate or ligand; peptides without Tyr show the background
AncSZ = experiment: as above
FGFR1 = FGFR1 (UniProt P11362); experiment: as above
Jak2 = Jak2 (UniProt O60674); experiment: as above
MERTK = MERTK (UniProt Q12866); experiment: as above
Sequence of MERTK (Q12866 whole entry, looked up): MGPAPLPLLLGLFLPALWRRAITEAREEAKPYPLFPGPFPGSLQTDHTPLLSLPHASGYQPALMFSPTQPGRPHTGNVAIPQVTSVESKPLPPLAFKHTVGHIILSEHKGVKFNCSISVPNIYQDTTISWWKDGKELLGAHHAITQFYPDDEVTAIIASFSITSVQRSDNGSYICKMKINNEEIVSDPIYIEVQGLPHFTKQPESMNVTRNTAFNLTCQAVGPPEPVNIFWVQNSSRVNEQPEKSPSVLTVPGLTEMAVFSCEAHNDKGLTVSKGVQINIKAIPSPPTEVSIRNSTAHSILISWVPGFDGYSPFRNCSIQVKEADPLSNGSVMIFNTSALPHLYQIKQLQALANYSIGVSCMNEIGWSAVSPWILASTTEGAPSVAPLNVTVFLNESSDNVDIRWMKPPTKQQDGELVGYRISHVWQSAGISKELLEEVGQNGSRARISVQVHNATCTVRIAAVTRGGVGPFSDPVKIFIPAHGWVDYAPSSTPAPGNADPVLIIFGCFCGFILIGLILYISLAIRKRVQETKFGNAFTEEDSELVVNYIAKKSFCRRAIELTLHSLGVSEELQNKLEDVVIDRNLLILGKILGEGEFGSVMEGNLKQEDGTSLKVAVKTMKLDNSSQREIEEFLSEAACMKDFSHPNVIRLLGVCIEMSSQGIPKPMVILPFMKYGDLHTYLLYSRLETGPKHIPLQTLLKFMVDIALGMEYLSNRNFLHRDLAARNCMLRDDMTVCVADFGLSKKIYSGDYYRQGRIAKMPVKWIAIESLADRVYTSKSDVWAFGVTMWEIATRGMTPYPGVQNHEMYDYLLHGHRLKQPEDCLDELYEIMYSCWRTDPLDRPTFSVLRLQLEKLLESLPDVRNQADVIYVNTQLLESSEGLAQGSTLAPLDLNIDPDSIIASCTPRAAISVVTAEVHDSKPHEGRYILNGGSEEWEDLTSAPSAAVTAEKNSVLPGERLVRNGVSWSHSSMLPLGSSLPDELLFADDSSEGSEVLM

c-Abl (mouse) = experiment: as above
c-Src = experiment: as above
EPHB1 = EPHB1 (UniProt P54762); experiment: as above
Sequence of EPHB1 (P54762 whole entry, looked up): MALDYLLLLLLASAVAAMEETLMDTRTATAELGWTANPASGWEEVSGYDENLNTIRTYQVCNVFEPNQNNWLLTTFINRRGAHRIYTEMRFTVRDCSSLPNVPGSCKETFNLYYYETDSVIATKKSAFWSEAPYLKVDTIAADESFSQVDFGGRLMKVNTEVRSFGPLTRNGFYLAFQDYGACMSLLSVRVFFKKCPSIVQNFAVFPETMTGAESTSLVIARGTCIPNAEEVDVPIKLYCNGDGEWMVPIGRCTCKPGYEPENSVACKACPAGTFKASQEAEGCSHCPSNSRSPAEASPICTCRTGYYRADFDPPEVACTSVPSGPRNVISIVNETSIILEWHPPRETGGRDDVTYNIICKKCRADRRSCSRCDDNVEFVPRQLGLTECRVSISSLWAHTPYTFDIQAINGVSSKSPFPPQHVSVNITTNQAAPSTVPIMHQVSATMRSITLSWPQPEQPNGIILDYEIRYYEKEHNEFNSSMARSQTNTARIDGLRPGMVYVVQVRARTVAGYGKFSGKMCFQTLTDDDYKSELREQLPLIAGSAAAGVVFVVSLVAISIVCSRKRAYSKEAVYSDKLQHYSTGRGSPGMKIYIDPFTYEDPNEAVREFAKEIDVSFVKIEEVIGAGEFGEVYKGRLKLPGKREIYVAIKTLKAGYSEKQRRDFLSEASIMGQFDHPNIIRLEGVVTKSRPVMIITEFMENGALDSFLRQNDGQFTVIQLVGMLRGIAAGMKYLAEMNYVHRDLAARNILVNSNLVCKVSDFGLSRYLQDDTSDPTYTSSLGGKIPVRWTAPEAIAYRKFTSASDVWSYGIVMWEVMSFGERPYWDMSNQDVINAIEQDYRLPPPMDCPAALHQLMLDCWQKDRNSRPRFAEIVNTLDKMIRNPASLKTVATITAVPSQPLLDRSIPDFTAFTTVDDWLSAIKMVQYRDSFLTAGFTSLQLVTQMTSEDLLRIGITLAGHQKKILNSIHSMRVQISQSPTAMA

Fer (mouse) = experiment: as above
FGFR3 = FGFR3 (UniProt P22607); experiment: as above
Sequence of FGFR3 (P22607 whole entry, looked up): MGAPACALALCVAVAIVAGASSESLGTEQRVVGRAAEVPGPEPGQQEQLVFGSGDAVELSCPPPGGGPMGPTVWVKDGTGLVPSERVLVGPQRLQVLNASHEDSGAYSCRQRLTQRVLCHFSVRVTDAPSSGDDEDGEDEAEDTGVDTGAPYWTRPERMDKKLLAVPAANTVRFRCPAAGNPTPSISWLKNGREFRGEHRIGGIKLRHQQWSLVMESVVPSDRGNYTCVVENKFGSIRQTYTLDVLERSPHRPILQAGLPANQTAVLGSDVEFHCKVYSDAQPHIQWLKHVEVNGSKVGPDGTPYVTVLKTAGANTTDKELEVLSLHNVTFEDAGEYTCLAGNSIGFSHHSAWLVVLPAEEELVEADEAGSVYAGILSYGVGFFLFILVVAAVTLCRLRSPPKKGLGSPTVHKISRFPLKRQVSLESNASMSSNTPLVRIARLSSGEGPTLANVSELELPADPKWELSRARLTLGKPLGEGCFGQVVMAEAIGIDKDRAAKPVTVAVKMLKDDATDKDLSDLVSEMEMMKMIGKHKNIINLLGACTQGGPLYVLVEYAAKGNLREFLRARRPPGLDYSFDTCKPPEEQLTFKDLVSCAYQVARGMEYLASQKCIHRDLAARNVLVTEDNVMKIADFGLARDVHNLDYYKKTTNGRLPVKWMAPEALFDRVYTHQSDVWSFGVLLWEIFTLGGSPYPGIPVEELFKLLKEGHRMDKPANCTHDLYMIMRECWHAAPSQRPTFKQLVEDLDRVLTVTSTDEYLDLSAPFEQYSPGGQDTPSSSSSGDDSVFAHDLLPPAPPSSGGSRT

Fyn = Fyn (UniProt P06241); experiment: as above
Sequence of Fyn (P06241 whole entry, looked up): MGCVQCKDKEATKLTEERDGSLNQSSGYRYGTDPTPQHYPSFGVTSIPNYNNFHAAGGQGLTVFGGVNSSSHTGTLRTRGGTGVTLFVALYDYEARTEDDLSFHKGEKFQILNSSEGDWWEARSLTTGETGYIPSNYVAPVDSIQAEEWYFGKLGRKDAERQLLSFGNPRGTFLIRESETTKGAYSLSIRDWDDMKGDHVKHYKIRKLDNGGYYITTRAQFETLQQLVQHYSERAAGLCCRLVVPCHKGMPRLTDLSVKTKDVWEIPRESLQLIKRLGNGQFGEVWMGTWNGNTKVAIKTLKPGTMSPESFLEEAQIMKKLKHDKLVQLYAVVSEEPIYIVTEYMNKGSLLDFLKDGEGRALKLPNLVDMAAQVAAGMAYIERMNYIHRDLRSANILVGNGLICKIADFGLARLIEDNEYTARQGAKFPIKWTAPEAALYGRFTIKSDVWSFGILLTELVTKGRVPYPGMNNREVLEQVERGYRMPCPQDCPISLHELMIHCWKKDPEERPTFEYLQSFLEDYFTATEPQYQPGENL

Fes = Fes (UniProt P07332); experiment: as above
Sequence of Fes (P07332 whole entry, looked up): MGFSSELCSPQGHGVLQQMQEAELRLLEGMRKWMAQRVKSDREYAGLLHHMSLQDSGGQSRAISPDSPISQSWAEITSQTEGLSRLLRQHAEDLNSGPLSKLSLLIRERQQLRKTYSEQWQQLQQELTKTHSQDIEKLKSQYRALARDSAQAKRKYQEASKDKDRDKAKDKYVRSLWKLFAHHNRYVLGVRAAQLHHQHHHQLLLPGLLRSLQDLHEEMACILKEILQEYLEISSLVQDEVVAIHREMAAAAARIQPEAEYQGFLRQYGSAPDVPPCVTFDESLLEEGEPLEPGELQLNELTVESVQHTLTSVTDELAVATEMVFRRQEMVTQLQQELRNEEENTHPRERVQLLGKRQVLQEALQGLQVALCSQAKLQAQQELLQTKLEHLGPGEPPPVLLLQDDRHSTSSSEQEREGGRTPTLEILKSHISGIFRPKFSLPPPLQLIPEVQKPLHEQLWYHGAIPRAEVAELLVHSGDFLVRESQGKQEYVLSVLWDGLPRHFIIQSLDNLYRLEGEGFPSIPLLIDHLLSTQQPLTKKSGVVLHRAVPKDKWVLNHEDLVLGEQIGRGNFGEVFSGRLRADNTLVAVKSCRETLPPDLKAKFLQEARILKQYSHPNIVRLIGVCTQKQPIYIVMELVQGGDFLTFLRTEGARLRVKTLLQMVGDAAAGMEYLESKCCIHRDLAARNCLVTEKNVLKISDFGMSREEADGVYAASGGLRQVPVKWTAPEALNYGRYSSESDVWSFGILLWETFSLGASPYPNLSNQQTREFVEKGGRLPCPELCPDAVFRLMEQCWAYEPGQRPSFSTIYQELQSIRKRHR

Hck = Hck (UniProt P08631); experiment: as above
Sequence of Hck (P08631 whole entry, looked up, the tested form may be a part): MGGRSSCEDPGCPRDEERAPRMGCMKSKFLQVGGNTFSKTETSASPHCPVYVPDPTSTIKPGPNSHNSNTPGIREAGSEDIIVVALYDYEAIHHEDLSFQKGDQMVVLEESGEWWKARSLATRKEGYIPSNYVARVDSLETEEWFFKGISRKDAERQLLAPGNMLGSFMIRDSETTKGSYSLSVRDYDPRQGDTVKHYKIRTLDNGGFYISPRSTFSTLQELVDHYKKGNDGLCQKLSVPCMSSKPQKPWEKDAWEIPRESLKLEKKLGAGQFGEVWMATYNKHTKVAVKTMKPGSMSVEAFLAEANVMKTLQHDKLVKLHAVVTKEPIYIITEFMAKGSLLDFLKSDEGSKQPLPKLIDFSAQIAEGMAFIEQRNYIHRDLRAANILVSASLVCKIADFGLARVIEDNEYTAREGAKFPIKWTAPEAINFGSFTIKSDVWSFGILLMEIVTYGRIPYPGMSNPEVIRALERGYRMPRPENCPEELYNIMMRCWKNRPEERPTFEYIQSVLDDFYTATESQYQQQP
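Wherever SH2 binding enrichment of the phosphorylated peptide, bacterial display is given: peptide library displayed on the E. coli surface as eCPX fusions, selected cells deep-sequenced, score is each peptide's frequency after selection divided by its frequency in the input.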
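Wherever phosphorylation enrichment, bacterial display is given: 11-residue human phosphosite peptides and single-mutation variants displayed on the E. coli surface, counted by deep sequencing, each peptide's frequency after selection divided by its frequency in the unselected input library; frequency after pTyr selection over input frequency; kinase dosed for 20-30% of maximal phosphorylation in three min.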

Sequence of Grb2 SH2 (P62993 whole entry, looked up): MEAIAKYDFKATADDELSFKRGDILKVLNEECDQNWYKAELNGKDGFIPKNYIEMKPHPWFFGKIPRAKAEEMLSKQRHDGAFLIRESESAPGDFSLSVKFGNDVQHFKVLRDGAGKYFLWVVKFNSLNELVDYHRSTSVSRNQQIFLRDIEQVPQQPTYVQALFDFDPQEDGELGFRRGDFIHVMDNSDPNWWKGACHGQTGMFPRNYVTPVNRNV

Sequence	SH2 binding enrichment (c-Src SH2)	SH2 binding enrichment (Grb2 SH2)	SH2 binding enrichment (SHP2-C SH2)	phosphorylation enrichment (EPHB2)	phosphorylation enrichment (AncSZ)	phosphorylation enrichment (FGFR1)	phosphorylation enrichment (Jak2)	phosphorylation enrichment (MERTK)	phosphorylation enrichment (c-Abl (mouse))	phosphorylation enrichment (c-Src)	phosphorylation enrichment (EPHB1)	phosphorylation enrichment (Fer (mouse))	phosphorylation enrichment (FGFR3)	phosphorylation enrichment (Fyn)	phosphorylation enrichment (Fes)	phosphorylation enrichment (Hck)
HFGCVYYGTLL [MET_Y1093_H1094Y]	0.578	0.841	0.715	1.42	1.88	2.69	2.13	1.11	1.82	8.21	1.5	1.76	2.19	3.77	2.43	2.43
AEEPIYIIVPA [BMXtide_2014]	0.83	1.05	0.956	24.2	4.75	13.9	2.47	9.02	8.02	8.8	18.5	11.1	12.1	10.1	2.98	7.96
DYYDLYGGEKL [PTPN11_Y66_F71L]	0.709	0.812	0.935	8.09	3.2	16.6	3.12	3.9	0.871	5.5	7.36	1.32	14.1	5.27	1.5	5.89
TVFENYVADIE [RHOA_Y42]	0.541	0.798	0.618	0.664	1.42	0.642	1.46	0.631	0.861	0.521	0.647	0.513	0.925	0.58	1.15	0.588
FADIAYNFRQG [PAH_Y166_H170Q_YF]	0.443	0.77	0.694	0.486	0.772	0.398	0.701	0.41	0.665	0.5	0.47	0.35	0.601	0.425	0.86	0.505
KTTGGYAGGLS [KRT8_Y419_S417G]	0.416	0.853	0.575	0.473	0.506	0.454	0.701	0.523	0.649	0.583	0.34	0.419	0.422	0.413	0.592	0.454
LPKEQYLYTKE [AFG3L2_Y614]	0.597	0.75	0.643	0.574	1.3	0.789	1.41	0.792	1.48	0.913	0.895	0.75	0.998	0.634	1.42	0.767
SIIKDSFHRGA [GATM_Y203_Y203S]	0.482	0.838	0.829	0.334	0.423	0.379	0.404	0.362	0.497	0.387	0.342	0.403	0.462	0.369	0.414	0.394
GIVEEYQLPYY [BMPR1A_Y453]	4.36	0.862	0.997	0.642	3	1.06	1.29	0.567	1.16	3.47	0.611	0.66	0.946	0.647	1.06	0.63
RAIELYNDKEK [OTULIN_Y244]	0.467	0.735	0.746	0.821	1.52	0.923	1.69	0.54	0.845	0.747	0.73	0.657	0.924	0.558	1.51	1.08
PSELYYSKIGP [SMG1_Y2254]	5.62	0.666	2.26	2.91	2.07	12.9	4.02	23.8	3.88	10.8	5.13	16.3	8.9	8.78	1.68	18.8
VECRVYAEDPF [PCCA_Y401_YF]	0.54	0.674	0.426	0.677	1.43	0.495	1.6	0.481	1.11	0.693	0.766	0.669	0.845	0.553	1.68	0.578
KILGRYYETGS [PAX2_Y72]	1.21	0.951	0.6	0.586	0.641	0.507	0.952	0.548	0.636	0.504	0.5	0.418	0.523	0.437	0.758	0.486
WEQELYSQLVY [WAS_Y102]	0.811	0.98	0.589	16	2.3	8.38	1.35	9.2	1.55	7.33	11.8	15.7	7.23	9.39	2.69	8.84
GHGEEYPVAGA [NOTCH3_Y2221_A2223V]	0.413	0.762	0.621	0.424	0.763	0.481	0.682	0.373	0.592	0.398	0.451	0.408	0.48	0.438	0.755	0.421
QRNEEYCLLDS [ITK_Y198_R193Q]	0.599	0.924	0.775	0.995	1.7	1.74	1.85	0.861	1.67	0.963	1.11	0.862	1.37	0.735	2.35	0.707
